Experimental data published in the DeepSol protein solubility set.

experiment: soluble on expression in E. coli; label from the status in PepcDB or PDB records

Soluble on expression in E. coli, not soluble:
MAHHHHHHMLRHLFRCTAAWAPKRSATREQRLKERVAARMELEAQVKSRVACYPHRSLTRPALRLERHQVNTPLFHSQLLNLNKMATDLQCISFSAPKGHWDAAIVLIKGHPNEANFEVWVNPTVPGYDDRHSIAPMYGMWENCISCGACTAWVIRPQSITCSGLDEYGNEKTEVLDGMRARCLMHELDHLSGRTILDQAQGPEFIVSGIAMGQRDLWPPNFPSAEAYMTSPHQFFDYVKNGPIIPPG
MAHHHHHHMLRRLGAGTNGQVRRSASSVSYGYLNLTVSDKIMPYVEGLKKKVIYVSSSKDCKAYVQEIQKGVQAGKINCIGLDVEGYKIGRNGTVSIIQVCTQDVYLFDLYKCDNSYLFVKCLKELLEDRRVIKITHDCREDCSILFNQYSICLNRTFDTQVAFNLLLKETKKDLYQISYDDLLYKCLLLNNKHKIYFHKMISLDQKIYLKRPIAKELIQYAIQDVIYLKPLMWSLVDRLLRVCKDGEAGREPFGEDGEARSNPFGEDGEARSNPFGEENPRSIKNGDDVMSEGAHSNLSEHKTNIIKRVTRLSERYINYQFLNTHVKNEKELQKGMTLDGMVVSCNNLNLYVKLNLSRRGVITNCMRNDFEIGDVVKCVILGFCNNDYIKLGLCDPSLCAVKREEGR
MAHHHHHHMLRWTSRYLCASAAAAAGPEVHRDVEEFAVVIVGGGPSGLSAAIRLKQLAGDQRDSFRVGLVEKGSEIGAHTLSGACVEPHGLDELLPGWREQEGSVLSSMTPVTSDAFHVLIGPSRSVKVPWLPSTLHNRGNYITSLGGICKWLGEQAEALGVEIYPGFAAADVVVDEATGAVTGVQLNDRGVDKSGRRTAQYEPGMIFRAKQTIFAEGCRGSCTKQLEKRFGLRTADNPQTFGLGIKEVWEVPKERHHPGTVMHTVGWPTTDKGHDNTYGGAFLYHYGDGLISCGYVVGLDYSNPYCRPYMEMQKWKTHDLIRGQLEGGRPILYGARTLVEGGFSALPKLHFPGGVLAGDCAGFLNLPKIKGTHTAMKSGMLAAEAVYEDAFKGGKEEAASGVECKSYDDCFRSSWLYKELYTVRNVRQSFYKSFKWGMLYTGITSLLLHGREPWTLKHTTPDNLSLKPAKECVEIKYPKPDGTLTFDLLTNHSRSGTAHNADQPCHLRLKDSKVAEEVNLKAYAGPEARFCPAGVYEFVNDKLVINAQNCLHCKACDIKDPTQNINWTVPEGGGGPNYQAQM
MAHHHHHHMLWRKQCACRTPEHPTKGYRSVNDSLQLMEIRRTSTPLNYKLLRAYQFLPYEVPFPPHTFASQQWREGENVEAHYALYQTCLCMYLVSSDMSLTVTNMLPALGIHEHDVHKVSRTLCAARCST
MAHHHHHHMMEHLNIEKEAVTYASLIAALHNPQYVLPGHTAKELEAHLPGGVSSQQHTNVGEGGGTVTEGQASGPTSNSVDLSGTKTSYEAYRQERIEAGMAWFAACHSAHRTADVFNELLYLLRAKSHWCQFNTVLVQLRGNAVVTETEWPERLSEAGEGVPPSASAAGGASPGSVTILAPRWSTWPNGKTYELLIQRARYVHQWEVMWALYEEMIATGVHGTARVYEVLLLEARSHPPQAVLAAERSGNSDGASSFLLRLYEELRRNGSDVHSFTGTVNVVNAWTRARSRSNRWQS
MAHHHHHHMMRLSRLGVTAAAAAPSSFPLLQQLRGVRYANIQETLKPIPGQTAGQISILNEICCNPDAEEERRKPVFRAEVMPDAAAAAEEDNYLHTMHKWGYDSLTLFKKTNEDPGPWWNANASTLASNWSQVGDYANAGMWSGVWRYTYGIGEYNLRPYELRGRAWGRKDPKTGAVMIRYGKRSTSKPVQRLCFPHTKEHEQHHRIKNPANKDVKEISALHGKRILRELQYHLGQGLRFYLVDGVFGSDPGTATPYRIITDTPTHAYFASMAAIRTFNYVARQEVTLVKRLSQSPIDEWGWRRPGVLIYHAPSYDFESPRIVEEFGGPRPKDMGLSHNRFIATEPYSIPMKCAMGGEPSCDALLDSTAMLCGRWGFYADEKGYLTVPGESIMSKDGRSLTLVITGDEADADALRTSPQLYGSRHHRIANGVVSRAWDVVSMPACATGAKPLPTDIVEQDLQRVQRSLPTRMGLPHTLSHRHHGRRHVSEYGFKWPHNYTEDVSTKAYAGGHLFKAPKTDKLAGHQPRPSRFLMKDVDVVVIGEGVDAAAAVVSTLKDRGMLYAEEAPLKEAMATALKAAKSVKVVPRASSKVVLGKLTHV

Soluble on expression in E. coli, soluble:
MAHHHHHHMMKEETLNSDNSSAEVSVESPSFSFNCAHFIAYNGFRETLHGHNYNVSLKVRGYVRDDGYVIDFSILKEKVKKVCNKLDHHFILPIYSDVLKFENVKNNIKIICEDNSEYSFPERDCIKLPIKHSSTEEIGQYILNQLIEEMDVSLLKSRHIHYIEISVSESPTQKAIVHKYI
